In patent US20190269788A1:

Tests used:
[1] = biological target: soluble recombinant human IGF1R hetero-tetramere with C-terminal 10-His tag (R&D Systems catalogue number 305-GR-50) (human) (UniProt P08069); assay: SPR Biacore X100, Ln(2)/koff
[2] = biological target: soluble recombinant human IGF1R hetero-tetramere with C-terminal 10-His tag (R&D Systems catalogue number 305-GR-50) (human) (UniProt P08069); assay: SPR Biacore X100, His-captured h-IGF1R around 600 RU, mean of four experiments

B1: hz208F2 VH3/VL3 (antibody, human IgG1, kappa, V domains shown)
VH: QVQLVQSGAEVKKPGASVKMSCKASGYTFTSYYIYWVKQAPGQGLEWLGWIWPGDGSTKYNEKFQGRVTLTADKSSNTAYMFLSSLRSEDTAVYFCASPMITPNYAMDYWGQGTLVTVSS
VL: DIQMTQSPSSLSASVGDRVTISCRASQDISKYLNWYQQKPGKAPKLLIYYTSRLHSGVPSRFSGRGSGTDYSLTISNLQPEDFATYFCQQGSTLPYTFGGGTKVEIKR
Work on B1 yielded a half-life of the complex [1] of 2 to 3 h and a Kd [2] of 0.06 nM.
